Here are results for 78 sequences from the supplement of paper PMC7877785.

± gives the uncertainty stated by the source.

The nature of this data set: self-splicing fitness, log relative to wild type (ln ratio); higher = more splicing; Tetrahymena group I intron in knt gene, E. coli kanamycin selection, DiMSum; sequences stand for … in CUCUCU…GGAGGGAAAAGUUAUCAGGCAUGCACCUGGUAGCUAGUCUUUAAACCAAUAGAUUGCAUCGGUUUAAAAGGCAAGACCGUCAAAUUGCGGGAAAGGGGUCAACAGCCGUUCAGUACCAAGUCUCAGGGGAAACUUUGAGAUGGCCUUGCAAAGGGUAUGGUAAUAAGCUGACGGACAUGGUCCUAACCACGCAGCCAAGUCCUAAGUCAACAGAUCUUCUGUUGAUAUGGAUGCAGUUCACAGACUAAAUGUCGGUCGGGGAAGAUGUAUUCUUCUCAUAAGAUAUAGUCGGACCUCUCCUUAAUGGGAGCUAGCGGAUGAAGUGAUGCAACACUGGAGCCGCUGGGAACUAAUUUGUAUGCGAAAGUAUAUUGAUUAGUUUUGGAGUACUCGUGGUCG
The method, boiled down:
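Colonies from six replicate transformations of E. coli BL21(DE3) were pooled and amplicon-sequenced on an Illumina HiSeq 2500. The library placed an intron with all eight P1ex-region nucleotides randomised inside the knt kanamycin-resistance gene on pET-22b(+), and cells grew overnight at 37°C or 30°C on LB agar with or without 25 μg/mL kanamycin (plus 100 μg/mL carbenicillin, 50 μM IPTG, 0.2% rhamnose). Fitness is the DiMSum error-weighted combination of wild-type-normalised replicate fold changes, kanamycin versus none.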

As to GAGUAGCAAUAUUACGGAGC, the “self-splicing fitness (ln)” value by setting is: (30 °C) -2.75 ± 0.23; (37 °C) -1.8 ± 0.27.
Regarding ACGCAGCAAUAUUACGGCGC, the “self-splicing fitness (ln)” value was -3.39 ± 0.14 (30 °C) and -1.63 ± 0.11 (37 °C).
In the same order, the values of CAGCAGCAAUAUUACGACUU are -0.431 ± 0.068 and 0.69 ± 0.083.
Turning to AACUAGCAAUAUUACGUGCG, the “self-splicing fitness (ln)” value is -0.832 ± 0.067 (30 °C) and -0.0538 ± 0.078 (37 °C).
In the same order, the values of GAUGAGCAAUAUUACGGCUG are -1.42 ± 0.19 and -1.36 ± 0.16.
In the same order, the values of UCGUAGCAAUAUUACGGUAA are -2.67 ± 0.35 and 0.253 ± 0.19.
In the same order, the values of CGCCAGCAAUAUUACGGUUA are -0.708 ± 0.055 and 0.0109 ± 0.058.
For the sequence ACUAAGCAAUAUUACGGCUG, the “self-splicing fitness (ln)” value by setting is: (30 °C) -0.108 ± 0.076; (37 °C) 0.16 ± 0.097.
In the same order, the values of UGCGAGCAAUAUUACGGCUA are 0.388 ± 0.12 and 0.499 ± 0.15.
In the same order, the values of CUUCAGCAAUAUUACGAAUG are -0.722 ± 0.065 and -0.456 ± 0.093.
In the same order, the values of CGAAAGCAAUAUUACGGCUC are -2.88 ± 0.18 and -1.73 ± 0.21.
On to AUUCAGCAAUAUUACGCUGG, for which the “self-splicing fitness (ln)” value was -3.36 ± 0.17 (30 °C) and -2.98 ± 0.26 (37 °C).
In the same order, the values of GUUGAGCAAUAUUACGCAUG are -2.87 ± 0.16 and -1.18 ± 0.16.
In the same order, the values of GUAGAGCAAUAUUACGUCUC are -0.285 ± 0.092 and -0.305 ± 0.099.
Take UUAUAGCAAUAUUACGUGCG: the “self-splicing fitness (ln)” value was -1.06 ± 0.15 (30 °C) and -0.395 ± 0.17 (37 °C).
In the same order, the values of GCCGAGCAAUAUUACGGUCU are -2.23 ± 0.13 and -2.26 ± 0.24.
In the same order, the values of AUCCAGCAAUAUUACGUAGC are -2.3 ± 0.08 and -1.78 ± 0.11.
Turning to AUGCAGCAAUAUUACGUAUC, the “self-splicing fitness (ln)” value is -4.58 ± 0.41 (30 °C) and -2.76 ± 0.4 (37 °C).
In the same order, the values of GCGGAGCAAUAUUACGUCAG are -3.19 ± 0.31 and -2.38 ± 0.35.
Turning to CGAUAGCAAUAUUACGUCAU, the “self-splicing fitness (ln)” value is -2.2 ± 0.15 (30 °C) and -2.02 ± 0.18 (37 °C).
In the same order, the values of GUUAAGCAAUAUUACGGCAU are -0.746 ± 0.12 and 0.0583 ± 0.18.
In the same order, the values of UAUGAGCAAUAUUACGGAUA are -2 ± 0.23 and 0.104 ± 0.21.
In the same order, the values of AGAAAGCAAUAUUACGCACC are 0.221 ± 0.098 and 0.0714 ± 0.12.
Turning to AGGCAGCAAUAUUACGGCUA, the “self-splicing fitness (ln)” value (30 °C) was -0.132 ± 0.069 and the “self-splicing fitness (ln)” value (37 °C) was -0.399 ± 0.078.
Consider GCCGAGCAAUAUUACGAUGC, for which the “self-splicing fitness (ln)” value was -0.994 ± 0.088 (30 °C) and -0.352 ± 0.096 (37 °C).
In the case of ACGUAGCAAUAUUACGUGCG, the “self-splicing fitness (ln)” value (30 °C) was -2.19 ± 0.1 and the “self-splicing fitness (ln)” value (37 °C) is -1.17 ± 0.11.
In the same order, the values of UGACAGCAAUAUUACGGAAU are -4.15 ± 0.28 and -1.55 ± 0.17.
For GUAUAGCAAUAUUACGAAAA, the “self-splicing fitness (ln)” value (37 °C) is -1.18 ± 0.22.
On to UAAUAGCAAUAUUACGUGAC, for which the “self-splicing fitness (ln)” value by setting is: (30 °C) -3.71 ± 0.22; (37 °C) -2.78 ± 0.22.
In the same order, the values of GACUAGCAAUAUUACGGGAG are -0.663 ± 0.096 and 0.0641 ± 0.12.
For CAGAAGCAAUAUUACGGUUG, the “self-splicing fitness (ln)” value is, setting by setting: (30 °C) -1.2 ± 0.069; (37 °C) -1.08 ± 0.098.
In the same order, the values of UCAGAGCAAUAUUACGAACG are -3.12 ± 0.32 and -1.85 ± 0.3.
For GUUGAGCAAUAUUACGAGAA, for the setting “37 °C”, the “self-splicing fitness (ln)” value is -0.619 ± 0.5.
For the sequence AAAAAGCAAUAUUACGGUCC, the “self-splicing fitness (ln)” value reads like this: (30 °C) -0.603 ± 0.084; (37 °C) 0.0637 ± 0.11.
Turning to UUCAAGCAAUAUUACGCACC, the “self-splicing fitness (ln)” value (37 °C) was -1.68 ± 0.49.
On to AGUCAGCAAUAUUACGGUCG, for which the “self-splicing fitness (ln)” value by setting is: (30 °C) 0.451 ± 0.089; (37 °C) 0.0344 ± 0.12.
As for UCAGAGCAAUAUUACGAACC, the “self-splicing fitness (ln)” value (37 °C) was -1.15 ± 0.42.
Regarding CACCAGCAAUAUUACGCCCA, the “self-splicing fitness (ln)” value (30 °C) was -1.72 ± 0.099 and the “self-splicing fitness (ln)” value (37 °C) is -1.71 ± 0.13.
In the same order, the values of UGUAAGCAAUAUUACGUACU are -0.07 ± 0.081 and -0.136 ± 0.092.
In the same order, the values of GCCUAGCAAUAUUACGAAGU are -0.618 ± 0.1 and -0.808 ± 0.12.
Consider ACAUAGCAAUAUUACGGAAG, for which the “self-splicing fitness (ln)” value is -3.57 ± 0.15 (30 °C) and -3.04 ± 0.22 (37 °C).
In the same order, the values of GCUGAGCAAUAUUACGAUAC are -1.15 ± 0.35 and 0.491 ± 0.22.
In the same order, the values of AAUUAGCAAUAUUACGGCAC are -1.11 ± 0.16 and -0.154 ± 0.21.
Take GGCUAGCAAUAUUACGUCCC: under “37 °C”, the “self-splicing fitness (ln)” value is -0.484 ± 0.43.
Turning to AUAGAGCAAUAUUACGAUGC, the “self-splicing fitness (ln)” value (37 °C) is -1.36 ± 0.32.
In the case of CACUAGCAAUAUUACGCUCU, the “self-splicing fitness (ln)” value reads like this: (30 °C) -2.46 ± 0.18; (37 °C) -0.207 ± 0.13.
In the same order, the values of GGUUAGCAAUAUUACGUGCG are -0.0643 ± 0.066 and 0.0143 ± 0.078.
In the same order, the values of CAGGAGCAAUAUUACGUAGA are -3.42 ± 0.28 and -1.56 ± 0.21.
Regarding CUUAAGCAAUAUUACGUAGC, for the setting “30 °C”, the “self-splicing fitness (ln)” value is -3.71 ± 0.23.
With CCUUAGCAAUAUUACGCUCA, the “self-splicing fitness (ln)” value was -3 ± 0.21 (30 °C) and -1.94 ± 0.3 (37 °C).
In the same order, the values of AGGGAGCAAUAUUACGUCCU are -2.66 ± 0.29 and -1.55 ± 0.24.
For UCGAAGCAAUAUUACGAUGG, the “self-splicing fitness (ln)” value runs as follows: (30 °C) -0.763 ± 0.079; (37 °C) -0.538 ± 0.13.
In the same order, the values of AGUAAGCAAUAUUACGAUUA are -0.948 ± 0.082 and 0.25 ± 0.092.
In the same order, the values of GUUGAGCAAUAUUACGUUAU are -3.37 ± 0.18 and -0.445 ± 0.17.
For the sequence GUCUAGCAAUAUUACGGCAG, the “self-splicing fitness (ln)” value (37 °C) is -1.72 ± 0.44.
Regarding CUGAAGCAAUAUUACGUGGC, the “self-splicing fitness (ln)” value was -1.58 ± 0.077 (30 °C) and -0.491 ± 0.099 (37 °C).
For the sequence GCUCAGCAAUAUUACGUGCC, the “self-splicing fitness (ln)” value (37 °C) was -2.56 ± 0.23.
Consider GCCUAGCAAUAUUACGCAUA, for which the “self-splicing fitness (ln)” value (30 °C) is -0.13 ± 0.18 and the “self-splicing fitness (ln)” value (37 °C) was -0.428 ± 0.15.
In the same order, the values of AGGUAGCAAUAUUACGUUCG are -0.889 ± 0.014 and -0.42 ± 0.034.
In the same order, the values of CAGAAGCAAUAUUACGGUAU are -3.21 ± 0.19 and -2.47 ± 0.22.
For AGCGAGCAAUAUUACGCGUG, the “self-splicing fitness (ln)” value is -1.48 ± 0.098 (30 °C) and -1.65 ± 0.13 (37 °C).
In the same order, the values of UCCAAGCAAUAUUACGGACA are -2.37 ± 0.11 and -0.757 ± 0.084.
In the same order, the values of UUAGAGCAAUAUUACGGUGA are -0.868 ± 0.067 and -0.176 ± 0.08.
As for UUUUAGCAAUAUUACGGCUC, the “self-splicing fitness (ln)” value reads like this: (30 °C) -2.49 ± 0.23; (37 °C) -0.329 ± 0.21.
In the same order, the values of CCUUAGCAAUAUUACGUAGG are -2.83 ± 0.14 and -2.83 ± 0.18.
Turning to ACCGAGCAAUAUUACGGGAA, the “self-splicing fitness (ln)” value by setting is: (30 °C) -2.52 ± 0.21; (37 °C) -2.56 ± 0.22.
In the same order, the values of ACUGAGCAAUAUUACGAGGG are -2.5 ± 0.18 and -2.21 ± 0.33.
In the same order, the values of CUAAAGCAAUAUUACGUCGC are -3.42 ± 0.15 and -2.63 ± 0.23.
In the same order, the values of AGCAAGCAAUAUUACGCAGA are -2.73 ± 0.22 and -2.05 ± 0.18.
With AUUGAGCAAUAUUACGCAGC, the “self-splicing fitness (ln)” value runs as follows: (30 °C) -1.85 ± 0.29; (37 °C) -2.7 ± 0.38.
For CAAUAGCAAUAUUACGCAAG, the “self-splicing fitness (ln)” value runs as follows: (30 °C) -1.19 ± 0.1; (37 °C) -0.905 ± 0.14.
In the same order, the values of GAUGAGCAAUAUUACGUGGG are -3.45 ± 0.21 and -3.04 ± 0.27.
In the same order, the values of GUACAGCAAUAUUACGUAUU are -3.45 ± 0.14 and -2.45 ± 0.17.
In the same order, the values of GAUCAGCAAUAUUACGCCAA are -1.95 ± 0.15 and -0.747 ± 0.12.
As to CUCAAGCAAUAUUACGAAAU, the “self-splicing fitness (ln)” value is -4.62 ± 0.46 (30 °C) and -2.14 ± 0.17 (37 °C).
In the same order, the values of CCGCAGCAAUAUUACGUUUA are -3.22 ± 0.18 and -2.35 ± 0.14.
In the same order, the values of CCGAAGCAAUAUUACGUAAG are -0.257 ± 0.055 and 0.2 ± 0.073.
In the same order, the values of AAAUAGCAAUAUUACGCAUU are -2.89 ± 0.14 and -1.52 ± 0.12.
